The values below come from patent US20240376151A1, “STAPLED PEPTIDES AND METHODS THEREOF” (FOG PHARMACEUTICALS, INC., priority 2022, published 2024).

This experiment concerns the target T1, RNF31 PUB domain (Homo sapiens, UniProt Q96EP0).
T1 construct: MBP-TEV (N, cleaved yes); made in house; host or cells: E. coli BL21 (DE3) pLysS
T1 sequence (Q96EP0 1-179): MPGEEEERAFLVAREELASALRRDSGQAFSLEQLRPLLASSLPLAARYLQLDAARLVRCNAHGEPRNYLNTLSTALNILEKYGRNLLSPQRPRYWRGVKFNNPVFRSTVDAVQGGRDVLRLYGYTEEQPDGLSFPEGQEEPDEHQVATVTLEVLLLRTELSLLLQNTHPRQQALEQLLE
The experiment in a line: Phage Library Screening with NGS, RNF31 PUB domain. The class given is binding. Conditions: for Phage library screen NGS readout, Target Concentration 10 / Phage library screen NGS readout, Target Concentration 30 / Phage library screen NGS readout, Target Concentration 100 / Phage library screen NGS readout, Target Concentration 300 / Phage library screen NGS readout, Target Concentration 1000: RNF31 PUB domain clusters C41-C45; for Phage library screen NGS readout, BLANK: clusters C41-C45.

[1] abbreviates: target concentration 1000, first column.
Where [2] appears, read: target concentration 1000, second column.

Consider DPAFMDCVFAAAVCATY, for which the “Phage library screen NGS readout, Target Concentration 10” value came to 0; the “Phage library screen NGS readout, Target Concentration 30” value is 0; the “Phage library screen NGS readout, Target Concentration 100” value was found to be 0; the “Phage library screen NGS readout, Target Concentration 300” value stood at 2. Besides, the “Phage library screen NGS readout, Target Concentration 1000” value under setting [1] is recorded as 8. Under setting [2], the “Phage library screen NGS readout, Target Concentration 1000” value amounted to 8. Also, the “Phage library screen NGS readout, BLANK” value (column 1 of 5) is given as 0. Where the note is “column 2 of 5”, the “Phage library screen NGS readout, BLANK” value is on record as 1. For the same sequence, the “Phage library screen NGS readout, BLANK” value (column 3 of 5) is given as 1. Further, the “Phage library screen NGS readout, BLANK” value (column 4 of 5) turned out to be 0. The “Phage library screen NGS readout, BLANK” value (column 5 of 5) turned out to be 0.
For DPAFDWCLYAADDCAET, the “Phage library screen NGS readout, Target Concentration 10” value was 1; the “Phage library screen NGS readout, Target Concentration 30” value worked out at 0; the “Phage library screen NGS readout, Target Concentration 100” value is given as 0; the “Phage library screen NGS readout, Target Concentration 300” value stood at 3. Moreover, the “Phage library screen NGS readout, Target Concentration 1000” value under setting [1] was 31. In addition, under setting [2], the “Phage library screen NGS readout, Target Concentration 1000” value is given as 12. The “Phage library screen NGS readout, BLANK” value (column 1 of 5) was 0. Besides, the “Phage library screen NGS readout, BLANK” value (column 2 of 5) was determined as 0. Also, the “Phage library screen NGS readout, BLANK” value (column 3 of 5) came out at 0. In addition, the “Phage library screen NGS readout, BLANK” value (column 4 of 5) is given as 0. Besides, the “Phage library screen NGS readout, BLANK” value (column 5 of 5) is reported as 1.
Take DPAYWQCIYAAWDCDQM: the “Phage library screen NGS readout, Target Concentration 10” value is reported as 0; the “Phage library screen NGS readout, Target Concentration 30” value is listed as 0; the “Phage library screen NGS readout, Target Concentration 100” value turned out to be 1; the “Phage library screen NGS readout, Target Concentration 300” value is given as 4. Under setting [1], the “Phage library screen NGS readout, Target Concentration 1000” value was found to be 13. Besides, the “Phage library screen NGS readout, Target Concentration 1000” value under setting [2] is on record as 6. Besides, the “Phage library screen NGS readout, BLANK” value (column 1 of 5) was determined as 1. In addition, the “Phage library screen NGS readout, BLANK” value (column 2 of 5) is listed as 2. The “Phage library screen NGS readout, BLANK” value (column 3 of 5) was 2. Besides, the “Phage library screen NGS readout, BLANK” value (column 4 of 5) came to 1. Besides, the “Phage library screen NGS readout, BLANK” value (column 5 of 5) stood at 0.
Consider DPAEDECDWAALYCDMQ, for which the “Phage library screen NGS readout, Target Concentration 10” value amounted to 0; the “Phage library screen NGS readout, Target Concentration 30” value is on record as 0; the “Phage library screen NGS readout, Target Concentration 100” value is listed as 0; the “Phage library screen NGS readout, Target Concentration 300” value is 1. The “Phage library screen NGS readout, Target Concentration 1000” value under setting [1] was 7. Moreover, the “Phage library screen NGS readout, Target Concentration 1000” value under setting [2] is listed as 6. Besides, the “Phage library screen NGS readout, BLANK” value (column 1 of 5) is reported as 0. Besides, the “Phage library screen NGS readout, BLANK” value (column 2 of 5) was found to be 0. The “Phage library screen NGS readout, BLANK” value (column 3 of 5) worked out at 0. For the same sequence, under “column 4 of 5”, the “Phage library screen NGS readout, BLANK” value was determined as 0. Under “column 5 of 5”, the “Phage library screen NGS readout, BLANK” value stood at 0.
Consider DPAQHECIYAAWDCDML, for which the “Phage library screen NGS readout, Target Concentration 10” value is 1; the “Phage library screen NGS readout, Target Concentration 30” value stood at 1; the “Phage library screen NGS readout, Target Concentration 100” value was determined as 1; the “Phage library screen NGS readout, Target Concentration 300” value worked out at 5. Moreover, the “Phage library screen NGS readout, Target Concentration 1000” value under setting [1] amounted to 6. The “Phage library screen NGS readout, Target Concentration 1000” value under setting [2] was 8. Where the note is “column 1 of 5”, the “Phage library screen NGS readout, BLANK” value is reported as 3. The “Phage library screen NGS readout, BLANK” value (column 2 of 5) worked out at 2. Besides, where the note is “column 3 of 5”, the “Phage library screen NGS readout, BLANK” value is 0. The “Phage library screen NGS readout, BLANK” value (column 4 of 5) was 1. In addition, the “Phage library screen NGS readout, BLANK” value (column 5 of 5) came to 0.
For the sequence DPADWDCMYAAQDCFED, the “Phage library screen NGS readout, Target Concentration 10” value stood at 0; the “Phage library screen NGS readout, Target Concentration 30” value amounted to 0; the “Phage library screen NGS readout, Target Concentration 100” value amounted to 1; the “Phage library screen NGS readout, Target Concentration 300” value was found to be 1. Under setting [1], the “Phage library screen NGS readout, Target Concentration 1000” value amounted to 11. For the same sequence, under setting [2], the “Phage library screen NGS readout, Target Concentration 1000” value amounted to 1. Further, the “Phage library screen NGS readout, BLANK” value (column 1 of 5) came out at 0. Further, where the note is “column 2 of 5”, the “Phage library screen NGS readout, BLANK” value is recorded as 0. Besides, the “Phage library screen NGS readout, BLANK” value (column 3 of 5) was 0. Besides, the “Phage library screen NGS readout, BLANK” value (column 4 of 5) is given as 0. For the same sequence, for the setting “column 5 of 5”, the “Phage library screen NGS readout, BLANK” value is on record as 0.
Take DPAWWSCMYAAWTCDDT: the “Phage library screen NGS readout, Target Concentration 10” value was 1; the “Phage library screen NGS readout, Target Concentration 30” value was determined as 10; the “Phage library screen NGS readout, Target Concentration 100” value came to 0; the “Phage library screen NGS readout, Target Concentration 300” value is reported as 7. Further, the “Phage library screen NGS readout, Target Concentration 1000” value under setting [1] was 14. Besides, the “Phage library screen NGS readout, Target Concentration 1000” value under setting [2] stood at 15. Also, the “Phage library screen NGS readout, BLANK” value (column 1 of 5) is recorded as 0. For the same sequence, the “Phage library screen NGS readout, BLANK” value (column 2 of 5) is 2. For the same sequence, the “Phage library screen NGS readout, BLANK” value (column 3 of 5) turned out to be 2. Further, the “Phage library screen NGS readout, BLANK” value (column 4 of 5) was determined as 1. Where the note is “column 5 of 5”, the “Phage library screen NGS readout, BLANK” value was 1.
Consider DPAADDCEWAALYCSFH, for which the “Phage library screen NGS readout, Target Concentration 10” value amounted to 2; the “Phage library screen NGS readout, Target Concentration 30” value was 0; the “Phage library screen NGS readout, Target Concentration 100” value was found to be 0; the “Phage library screen NGS readout, Target Concentration 300” value is given as 3. Besides, under setting [1], the “Phage library screen NGS readout, Target Concentration 1000” value is 3. In addition, the “Phage library screen NGS readout, Target Concentration 1000” value under setting [2] stood at 8. In addition, the “Phage library screen NGS readout, BLANK” value (column 1 of 5) turned out to be 2. Further, the “Phage library screen NGS readout, BLANK” value (column 2 of 5) came to 9. The “Phage library screen NGS readout, BLANK” value (column 3 of 5) is given as 0. In addition, the “Phage library screen NGS readout, BLANK” value (column 4 of 5) amounted to 2. Also, the “Phage library screen NGS readout, BLANK” value (column 5 of 5) came out at 3.
With DPAMQDCQLAALVCTTY, the “Phage library screen NGS readout, Target Concentration 10” value is on record as 0; the “Phage library screen NGS readout, Target Concentration 30” value was determined as 1; the “Phage library screen NGS readout, Target Concentration 100” value is recorded as 0; the “Phage library screen NGS readout, Target Concentration 300” value stood at 1. Under setting [1], the “Phage library screen NGS readout, Target Concentration 1000” value is 6. The “Phage library screen NGS readout, Target Concentration 1000” value under setting [2] amounted to 6. Further, the “Phage library screen NGS readout, BLANK” value (column 1 of 5) is recorded as 0. Also, the “Phage library screen NGS readout, BLANK” value (column 2 of 5) is on record as 0. In addition, the “Phage library screen NGS readout, BLANK” value (column 3 of 5) came out at 0. Further, the “Phage library screen NGS readout, BLANK” value (column 4 of 5) was found to be 0. For the same sequence, the “Phage library screen NGS readout, BLANK” value (column 5 of 5) is recorded as 0.
On to DPAYDYCLYAAQDCVWW, for which the “Phage library screen NGS readout, Target Concentration 10” value is 0; the “Phage library screen NGS readout, Target Concentration 30” value was 0; the “Phage library screen NGS readout, Target Concentration 100” value is reported as 0; the “Phage library screen NGS readout, Target Concentration 300” value is 1. Also, the “Phage library screen NGS readout, Target Concentration 1000” value under setting [1] is reported as 6. Besides, the “Phage library screen NGS readout, Target Concentration 1000” value under setting [2] was 5. Under “column 1 of 5”, the “Phage library screen NGS readout, BLANK” value was 0. Where the note is “column 2 of 5”, the “Phage library screen NGS readout, BLANK” value is 0. Besides, under “column 3 of 5”, the “Phage library screen NGS readout, BLANK” value is given as 0. Where the note is “column 4 of 5”, the “Phage library screen NGS readout, BLANK” value is listed as 0. Further, the “Phage library screen NGS readout, BLANK” value (column 5 of 5) amounted to 0.
As to DPAADQCDIAAFVCSTY, the “Phage library screen NGS readout, Target Concentration 10” value is on record as 0; the “Phage library screen NGS readout, Target Concentration 30” value worked out at 0; the “Phage library screen NGS readout, Target Concentration 100” value is 0; the “Phage library screen NGS readout, Target Concentration 300” value is 4. Under setting [1], the “Phage library screen NGS readout, Target Concentration 1000” value is 26. For the same sequence, the “Phage library screen NGS readout, Target Concentration 1000” value under setting [2] worked out at 17. Besides, the “Phage library screen NGS readout, BLANK” value (column 1 of 5) was found to be 0. The “Phage library screen NGS readout, BLANK” value (column 2 of 5) was 0. For the same sequence, the “Phage library screen NGS readout, BLANK” value (column 3 of 5) was found to be 0. The “Phage library screen NGS readout, BLANK” value (column 4 of 5) came to 0. Where the note is “column 5 of 5”, the “Phage library screen NGS readout, BLANK” value is listed as 0.
